This is an account of results in article PMC2138045.

Assay [1] concerns the target His-tagged kelch BTB domain (his:BTB) (Drosophila). As to the kind of experiment: dynamic light scattering.
For assay [2] the target is unchanged. Briefly: SEC.
Assay [3] has as its target His-tagged kelch BTBIVR (his:BTBIVR) (Drosophila). Briefly: SEC.

“And” between values parts separate entries of the source, which are not always exact repeats. Equal entries are not always repeated.

For “His-tagged kelch BTB domain (his:BTB) (domain or fragment)”, the stoichiometry N in assay [1] was 2; in assay [2], 2 and 4.

“His-tagged kelch BTBIVR (his:BTBIVR) (domain or fragment)” displayed a stoichiometry N in assay [3] of 2.
